Experimental data taken from the nanobody polyreactivity screen of Harvey et al. (2022).

assay: yeast display, Sf9 membrane polyspecificity reagent, FACS + sequencing; frameworks hold sequencing errors
Method in brief: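 In a synthetic yeast display library (Saccharomyces cerevisiae BJ5465), nanobody expression was induced with galactose for 36–48 hours. FACS gates were set low and high (top ~1%) using anti-HA fluorescence for expression and streptavidin fluorescence for binding of the Sf9 membrane reagent. Each polyreactivity label is drawn from the gate of origin.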

Row | Sequence | polyreactivity (PSR sort gate)
1 | QVQLVESGGGLVQAGGSLSLTCAASVLTLTGYPMGWYRPAPGKERELVAAISSRGGSTYYADSVKGRFTISRDNAKNTVYLQMNSLKREDTAFYYCDARASSGARGLDYWGQGTQVTVSS | high polyreactivity
2 | QVQLVESGGGLVQAGGSRRLRCAASGSTFDVYAMGWYRQAPGKESELVAVINTSGTRTYYADSVKGRFTISRDNAKNTVYLQMNSLKPEDTAVYSCNAGGHLEMNYWGQGTQVTVSS | low polyreactivity
3 | QVQLVESGGGLVQAGGSRRLSCAASGFFFDVNAMGWYRQAPGTEREWVATISKRGGTTYYADSVKGRFTISRDNAKNTVYLQMNSLKQEDTAVYYCAARHQSLRSYRYDYWGQGTQVTVSS | low polyreactivity
4 | QVQLVESGGGLVQAGGSRRLSCAASGFIFTKYTMGWYRQAPGKERELVAAIRSDGVRTYYADSVKGRFTISRDNAKNTVYLQMNSLKPEDTAVYYCAARSLRYGRGMYYWGQGTQVTVSS | high polyreactivity
5 | QVQLVESGGGLVQAGGSRRLSCAASGIIFAQYAMGWYRQAPGKERELVDSISGGGSTTNYADSVKGRFTISRDNAKNTVYLQMNSLKPEDTAVYYCAARTRRRGGIYDYWGQGTQVTVSS | high polyreactivity
6 | QVQLVESGGGLVQAGGSRRLSCAASGIIFTRNSMGWYRQAPGKERELVAAISRSGGRTYYADSVKGRFTISRDNAKNTVYLQMNSLKPEDTAVYYCYPRDKNLQAYDYWGQGNQVTVSS | high polyreactivity
7 | QVQLVESGGGLVQAGGSRRLSCAASGIIFYPNAMGWYRQAPGKERELVAAITSDGSTYYADSVKGRFTISRDNAKNTVYLQMNSLKPEDTAVYYCAAWDDYGYDYWGQGTQVTVSS | low polyreactivity
8 | QVQLVESGGGLVQAGGSRRLSCAASGRSFTRYAMGWYRQAPGKERVLVAAITSSGRTYYADSVKGRFTISRDNAKNTVYLQMNRLKPEDTAVYYCAKYRANALNYANRGAGDYWGQGTQVTVSS | high polyreactivity
9 | QVQLVESGGGLVQAGGSRRLSCAASGRTFRNYAMGWYRQAPGKERELVAAINFSGDGTYYADSVKGRFTISRDNAKNTVYLQMNSLKPEDTAVYYCAADVEYYRDVPQQVYVSDDYWGQGTQVTVSS | low polyreactivity
10 | QVQLVESGGGLVQAGGSRRLSCAASGSIFDYYVMGWYRQAPVKERELVAAISWSGASTYSADSVKGRFTISRDNAKNTVYLQMNSLKPEDTAVYYCAADYGVNTLIDYDYWGQGTQVTVSS | low polyreactivity
11 | QVQLVESGGGLVQAGGSRRLSCAASGSIFVKYAMGWYRQAPGKERELVAAISQSGVRTYYADSVKGRFTISRDNAKNTVYLQMNSLKPEDTAVYYSAAYSGYYYWGQGTQVTVSS | high polyreactivity
12 | QVQLVESGGGLVQAGGSRRLSCAASGSISGYNAMGWYRQAPGKERELVAVITTDGSTNYADSVKGRFTISRDNAKNTVYLQMNSLKPEDTAVYYCADYVVWLYGYEYWGQGTQVTVSS | low polyreactivity
13 | QVQLVESGGGLVQAGGSRRLSCAASGSISNRYAMGWYRPAPGKEREFVARIRRRGGSTNYADSVKGRFTISRDNAKKTVYLQMNSLKPEDTAVYYCNAYPYQLDYDYWGQGTQVTVSS | high polyreactivity
14 | QVQLVESGGGLVQAGGSRRLSCAASGSISVGFTMGWYRQAPGKEWEFVAVITGTGGRTRYADSVKGRFTISRDNAKNTVYLQMNSLKPEDTAVYYCAAKIRWRGALYDYWGQGSQVTVSS | high polyreactivity
15 | QVQLVESGGGLVQAGGSRRLSCAASGSTFARYPMGWYRQAPGKERELVATITRGGSTNYADSVKGRFTISRDNAKNTVYLQMNSLKPEDTAVYYCNARCGRSPYGYGDYYWGQGTQVTVSS | high polyreactivity
16 | QVQLVESGGGLVQAGGSRSLSCAASGRNFYYYTMGWYRQAPGKERELVAAISWGGVNTDYADSVKGRFTISRDNAKNTVYLQMNSLKPEDTAVYYCAAGRWSVGTYDYWGQGTQVTVSS | low polyreactivity
17 | QVQLVESGGGLVQAGGSSRLSCAASGRTFDDYAMGWYRQAPATERELVAAISSRGGSTYYADSVKGRFTISRDNAKHTVYLQMNSLKPEDTAVYYSNTLQSSHGSSQYDSWGQGTQVTVSS | low polyreactivity
18 | QVQLVESGGGLVQAGGSVRLSCAASGFISPSYAMGWYRQAPGKERELVAAITTSGGSTYYADSVKGRFTISRDNAKNTVYLQMNSLIPEDTAVYYCAAVGPDNSLYEPMDYWGQGTQVTVSS | low polyreactivity
19 | QVQLVESGGGLVQAGGSVRLSCAASGFSFRLYVLGWYRQAPGTERELVAAISSLGGSTYYADSVKGRFTISRDNAKYTVDLQMNSLKPEDTAVYYCAADRPRGRETVDYWGHGTQVTVSS | high polyreactivity
20 | QVQLVESGGGLVQAGGSVRLSCAASGNIFLRNAMGWYRQSPGKERELVAAIRRTGGSTYYADSVKGRFTISRDNAKTTVYLQMNSLKPEDTAVYYCAKRSYTGYEYWGQGTQVTVSS | low polyreactivity
21 | QVQLVESGGGLVQAGGSVRLSCAASGRIFQPYAMGWYRQAPGKEREWVAAITRRAGSTYYADSVKGRFTISRDNALNTVYLQLNSLKPEDTAVSYCAARGLYWAYEMEYWGQGTQVTVSS | low polyreactivity
22 | QVQLVESGGGLVQAGGSVRLSCAASGRILKVYPMGWYRQAPGKEWEFVAAISVNGGRTYYADSVKGRFTISRDNAKNTVYLQRQRLNPEDTAVYYCAKRLYKPGNVFYSVDQSDYWGQGTQVTVSS | low polyreactivity
23 | QVQLVESGGGLVQAGGTHRLSCSASGFIFCKYAMGWYRQAPGKERELVAVITRSGSRTYYADSVKGRFTISRDNAKNTVYLQMNSLKPEDTAVYYCATENVYAYDYWGQGTQVTVSS | high polyreactivity
24 | QVQLVESGGGLVQAGGTISLSCAASGRTYRNNAMGWYRQAPGKEMELVAAISRTGGRTYYADSVKGRFTISRDNAKNPVYLQMNSLKPEDSAVYYCNAAYLVREYDYWGQGTQVTVSS | high polyreactivity
25 | QVQLVESGGGLVQAGGTLRLICAASGSTFGPYDMGWYRQAPGKERELVADITSGGSTYYADSVKGRFTISRDNAKNTVYLQMISLKPEDTAVYYCAADRVWPYYQYDYWGQGTQVTVSS | low polyreactivity
26 | QVQLVESGGGLVQAGGTLRLSCAASGFIFAGYAMAWYRHAPGKERELVAASSWDGGSTYFADSVKGRFTISRDNAKHTVYLQMNSLIPEDTAGYYCAAKYFRHGPATYDYWGQGTQVTVSS | low polyreactivity
27 | QVQLVESGGGLVQAGGTLRLSCAASGFIFRKYGMGWYRQAPGKERELVAAIRFTGGSTRYADSVKGRFTISRDNAKNTVYLQMNSLKPEDTAVYYCNADRVYVRGRFTYDYWGQGTQVTVSS | low polyreactivity
28 | QVQLVESGGGLVQAGGTLRLSCAASGIIFDQNAMGWYRQAPGKERELVAAISWSGGGTYYADSVKGRFTISRDNAKNTVYLQMNSLKPEDTAVSYCAVEDMSHAYVQHYRFGYGYWGQGTQVTVSS | low polyreactivity
29 | QVQLVESGGGLVQAGGTLRLSCAASGIIFDTYVMGWYRQAPGKERELVAAITRSGGRTRYADTVKGRFTISRYNAKNTVYLQMNSLKPEDTAVYYCAARIPDRQDGYGYWGQGTQVTVSS | high polyreactivity
30 | QVQLVESGGGLVQAGGTLRLSCAASGLTFRYYAMGWYRQAPGKERELVAAITRRGSTYYADSVKGRFTISRDNAKNTVYFQMNSLKPEDTAVYYCATVTGFHSSPLRDLDYWGQGTQVTVSS | high polyreactivity
